Measurements published in the supplement of paper PMC5998384.

Legend:
HeLa Kyoto [1] = experiment: solubility in G1/S (NP-40 vs SDS abundance) (log2 ratio); higher = more soluble; details: cell cycle stage: G1/S
HeLa Kyoto [2] = experiment: solubility change mitosis vs G1/S (difference of NP-40 vs SDS log2 ratios) (log2 ratio difference); higher = more soluble in mitosis
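Wherever solubility change mitosis vs G1/S (difference of NP-40 vs SDS log2 ratios) is given: synchronized HeLa Kyoto cells (double thymidine block for G1/S, nocodazole release for mitosis), protein amounts in NP-40 versus SDS lysates quantified by mass spectrometry, three biological replicates.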
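Wherever solubility in G1/S (NP-40 vs SDS abundance) is given: HeLa Kyoto cells arrested at G1/S by double thymidine block, proteins quantified by TMT10plex mass spectrometry in mild NP-40 versus SDS extracts, three biological replicates.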

Row | Sequence | solubility in G1/S (log2) (HeLa Kyoto [1]) | solubility change mitosis (log2) (HeLa Kyoto [2])
1 | MDPQPPPPAQGSPPHRGRGRGRGRGRGRGRGRGRGGAGAPRAPLPCPTCGRLFRFPYYLSRHRLSHSGLRPHACPLCPKAFRRPAHLSRHLRGHGPQPPLRCAACPRTFPEPAQLRRHLAQEHAGGEVELAIERVAKETAEPSWGPQDEGSEPPTTAAAGATEEEAVAAWPETWPAGEPSTLAAPTSAAEPRESESEEAEAGAAELRAELALAAGRQEEKQVLLQADWTLLCLRCREAFATKGELKAHPCLRPEGEQEGEGGPPPRPKRHQCSICLKAFARPWSLSRHRLVHSTDRPFVCPDCGLAFRLASYLRQHRRVHGPLSLLAPLPAAGKKDDKASGARNSAKGPEGGEGAECGGASEGGEGQNGGDAAPARPPAGEPRFWCPECGKGFRRRAHLRQHGVTHSGARPFQCVRCQREFKRLADLARHAQVHAGGPAPHPCPRCPRRFSRAYSLLRHQRCHRAELERAAALQALQAQAPTSPPPPPPPLKAEQEEEGLPLPLANIKEEPPSPGTPPQSPPAPPVFLSASCFDSQDHSAFEMEEEEVDSKAHLRGLGGLAS [ZNF579] | -0.0421 | 0.288
2 | MPGVARLPLLLGLLLLPRPGRPLDLADYTYDLAEEDDSEPLNYKDPCKAAAFLGDIALDEEDLRAFQVQQAVDLRRHTARKSSIKAAVPGNTSTPSCQSTNGQPQRGACGRWRGRSRSRRAATSRPERVWPDGVIPFVIGGNFTGSQRAVFRQAMRHWEKHTCVTFLERTDEDSYIVFTYRPCGCCSYVGRRGGGPQAISIGKNCDKFGIVVHELGHVVGFWHEHTRPDRDRHVSIVRENIQPGQEYNFLKMEPQEVESLGETYDFDSIMHYARNTFSRGIFLDTIVPKYEVNGVKPPIGQRTRLSKGDIAQARKLYKCPACGETLQDSTGNFSSPEYPNGYSAHMHCVWRISVTPGEKIILNFTSLDLYRSRLCWYDYVEVRDGFWRKAPLRGRFCGSKLPEPIVSTDSRLWVEFRSSSNWVGKGFFAVYEAICGGDVKKDYGHIQSPNYPDDYRPSKVCIWRIQVSEGFHVGLTFQSFEIERHDSCAYDYLEVRDGHSESSTLIGRYCGYEKPDDIKSTSSRLWLKFVSDGSINKAGFAVNFFKEVDECSRPNRGGCEQRCLNTLGSYKCSCDPGYELAPDKRRCEAACGGFLTKLNGSITSPGWPKEYPPNKNCIWQLVAPTQYRISLQFDFFETEGNDVCKYDFVEVRSGLTADSKLHGKFCGSEKPEVITSQYNNMRVEFKSDNTVSKKGFKAHFFSDKDECSKDNGGCQQDCVNTFGSYECQCRSGFVLHDNKHDCKEAGCDHKVTSTSGTITSPNWPDKYPSKKECTWAISSTPGHRVKLTFMEMDIESQPECAYDHLEVFDGRDAKAPVLGRFCGSKKPEPVLATGSRMFLRFYSDNSVQRKGFQASHATECGGQVRADVKTKDLYSHAQFGDNNYPGGVDCEWVIVAEEGYGVELVFQTFEVEEETDCGYDYMELFDGYDSTAPRLGRYCGSGPPEEVYSAGDSVLVKFHSDDTITKKGFHLRYTSTKFQDTLHSRK [BMP1] | -0.299 | -0.301
3 | MATLIYVDKENGEPGTRVVAKDGLKLGSGPSIKALDGRSQVSTPRFGKTFDAPPALPKATRKALGTVNRATEKSVKTKGPLKQKQPSFSAKKMTEKTVKAKSSVPASDDAYPEIEKFFPFNPLDFESFDLPEEHQIAHLPLSGVPLMILDEERELEKLFQLGPPSPVKMPSPPWESNLLQSPSSILSTLDVELPPVCCDIDI [PTTG1] | 0.176 | 0.554
4 | MAPGSRGERSSFRSRRGPGVPSPQPDVTMLSRLLKEHQAKQNERKELQEKRRREAITAATCLTEALVDHLNVGVAQAYMNQRKLDHEVKTLQVQAAQFAKQTGQWIGMVENFNQALKEIGDVENWARSIELDMRTIATALEYVYKGQLQSAPS [BLOC1S1] | 0.51 | 0.133
5 | MDSPWDELALAFSRTSMFPFFDIAHYLVSVMAVKRQPGAAALAWKNPISSWFTAMLHCFGGGILSCLLLAEPPLKFLANHTNILLASSIWYITFFCPHDLVSQGYSYLPVQLLASGMKEVTRTWKIVGGVTHANSYYKNGWIVMIAIGWARGAGGTIITNFERLVKGDWKPEGDEWLKMSYPAKVTLLGSVIFTFQHTQHLAISKHNLMFLYTIFIVATKITMMTTQTSTMTFAPFEDTLSWMLFGWQQPFSSCEKKSEAKSPSNGVGSLASKPVDVASDNVKKKHTKKNE [TMEM38B] | -0.0322 | -0.17
